Target: the molecule itself
Test: SEC-MALS; 14-3-3ζ variants alone, injected at 50 μM initial concentration; Superdex 200 10/300 GL; 50 mM Tris pH 7.4, 150 mM NaCl, 0.5 mM TCEP; room temperature; dimer to monomers

B1: 14-3-3ζ S58E (natural protein, human)
chain: MDKNELVQKAKLAEQAERYDDMAACMKSVTEQGAELSNEERNLLSVAYKNVVGARRSEWRVVSSIEQKTEGAEKKQQMAREYREKIETELRDICNDVLSLLEKFLIPNASQAESKVFYLKMKGDYYRYLAEVAAGDDKKGIVDQSQQAYQEAFEISKKEMQPTHPIRLGLALNFSVFYYEILNSPEKACSLAKTAFDEAIAELDTLSEESYKDSTLIMQLLRDNLTLWTS
notes: 14-3-3 protein zeta with Glu at position 58 (ζ-isoform numbering); also called S58E variant; phosphomimetic S58E; source: E. coli, purified
stoichiometry N: 2

Reference: article PMC10141581, “Autonomous Synthesis of Functional, Permanently Phosphorylated Proteins for Defining the Interactome of Monomeric 14-3-3ζ” (ACS Central Science, 2023)
